# Experimental data: a protein production outcome set (Wang et al. 2014)
# Assay: label from the status in PepcDB records
row,Sequence,protein production
1,MGSASIGYQFGISARFYGNFNLSSDITVSSLPCKLDVSIKSLFSAPSSTHKEYSNRARVCSLPNTDGYCDEKFETPILDSIETPLQLKNLSVKELKLLADEIRTELHSVLWKKTQKSMNPSFAAIELTLALHYVFRAPVDNILWDAVEQTYAHKVLTRRWSAIPSRQNSGISGVTSRLESEYDSFGTGHGCNSISAGLGLAVARDMKGKRDRVVAVIDNVTITAGQAYEAMSNAGYLDSNMIVILNDSRHSLHPNMEEGSKASISALSSIMSKIQSSKVFRKFRELAKAMTKRIGKGMYEWAAKVDEYARGMVGPTGSTLFEELGLYYIGPVDGHNIEDLVCVLREVSSLDSMGPVLVHVITEGNRDAETVKNIMVKDRRTYSDCFVEALVMEAEKDRDIVVVHAGMEMDPSLLTFQERFPDRFFNVGMAEQHAVTFSAGLSSGGLKPFCIIPSAFLQRAYDQVVHDVDRQRKAVRFVITSAGLVGSDGPVQCGAFDIAFMSSLPNMIAMAPADEDELVNMVATAAYVTDRPVCFRFPRGSIVNMNYLVPTGLPIEIGRGRVLVEGQDVALLGYGAMVQNCLHAHSLLSKLGLNVTVADARFCKPLDIKLVRDLCQNHKFLITVEEGCVGGFGSHVAQFIALDGQLDGNIKWRPIVLPDGYIEEASPREQLALAGLTGHHIAATALSLLGRTREALLLMS,failed
2,MKETTIYGRLVMAVKNTAQVVIGGKIITLGGYESEEYFQKVASYINNKIAELSEMPGYTRQPVETKHTLLSLNVTDDYFKAKKQAEIFEQDLQQKDQEMYELKHELIALRMKIEETEKNAQEAQQQKELLEGKVKELNDEIDKLLK,not failed
3,HAATAAEPPTAPTPPTQPAEGPGGADYRHASVHQWHFGEGAREYWVFTPEQPVPGNAPLVIFLHGWSVMQPDLYRAWIDHIVRRGMVVVYPRYQPDLKTPNAAFLDNAAGALGDALRRLQAGELGVRPRLNQVAYLGHSAGGLLAANLAAASERLK,failed
4,MKTGDKQFAVIGLGRFGLAVCKELQDSGSQVLAVDINEDRVKEAAGFVSQAIVANCTHEETVAELKLDDYDMVMIAIGADVNASILATLIAKEAGVKSVWVKANDRFQARVLQKIGADHIIMPERDMGIRVARKMLDKRVLEFHPLGSGLAMTEFVVGSRLMGKTLSDLALCKVEGVQVLGFKRGPEIIKAPDMSTTLEIGDLIIVVGPQDKLANKLKSLLEHHHHHH,failed
5,MRMPDRTDVCVLLPTLNESETIGDVVGGFYDHGFEHVLVVDGDSTDGTRAIAREHGARVITQSGSGKGQAVREGVEQIDQPYVLMADGDGTYRPEDADKMLTPLFAGRAEHVIGDRFADMEAGAMTRLNAVGNRLINRLFATIHGRDLQDILSGYRAFTTQSFERSKLSADGFGIETELAVECVRRGVSTAVVPIRYEARPGGSETNLHPLKDGGRILLTLYRLARMNNPIFYFGSVAAVGTAGGVALGAFVGYRYLTAGVSHEVLALLAAFLVLLSVQLLMFGVLSDIIVSIHREQTRRLDDIADQLEEQNDE,failed
6,MADMTKQAFMRLSNPKFIMLFLILWVSLLLSSNHTLSQLADYIFFTFLGTLGAIFANSTGAGGGVVFIPMFTQLNFTEQQSIATSFAIQCFGMTAGAVTWWHHYRTEKTDLRLWQGFKRIICVTTIASIIGLNAVFFYQVNSPATLHTSFSWFSLLLGFFIVLTIYLLQPHRERSQLYYVDYIFLILIGLFGGAVTAWLSVGVGELLVIYLLLRHFDISMAVAAAVIVSAISVWTAIAQVNSDVYWQVVLFAGPGAVLGGIFAKTLVTHLSAIKLKLFFACWLLLSGVVGLI,failed
7,MRTSNPMLKKEAFRKEGASASAMTIGGTVGKTFIMLILLLATSVYSYIQMMQGTMKMPVLIGALIVAAIIAFASMFFPRISPFGAPIYAAVEGVVLGSISAVYTMKFGDSIVLNAVLLTISILFAMLVLYATRVVKVTDKFRTGVMAATLGIMVMYLVVFLLNMFGVTVPYIHQGGTIGIIISAVVIVVAALNLLLDFDLIENGVRSQAPKYMEWYTAMGLMLTLVWLYLEILRFVSYFTKND,not failed
8,PELKCPVIGCDGQGHISGKYTSHRTASGCPLAAKRQKENPLNGASLSWKLNKQELPHCPLPGCNGLGHVNNVFVTHRSLSGCPLNAQVIKKGKVS,not failed
9,MSSSLLSVLKEKSRSLKIRNKPVKMTSQERMIVHRCRFVDFTPATITSLAFSHKSNINKLTPSDLRLAIGRSNGNIEIWNPRNNWFQEMVIEGGKDRSIEGLCWSNVNGESLRLFSIGGSTVVTEWDLATGLPLRNYDCNSGVIWSISINDSQDKLSVGCDNGTVVLIDISGGPGVLEHDTILMRQEARVLTLAWKKDDFVIGGCSDGRIRIWSAQKNDENMGRLLHTMKVDKAKKESTLVWSVIYLPRTDQIASGDSTGSIKFWDFQFATLNQSFKAHDADVLCLTTDTDNNYVFSAGVDRKIFQFSQNTNKSQKNNRWVNSSNRLLHGNDIRAICAYQSKGADFLVSGGVEKTLVINSLTSFSNGNYRKMPTVEPYSKNVLVNKEQRLVVSWSESTVKIWTMGTDSSTEQNYKLVCKLTLKDDQNISTCSLSPDGQVLVVGRPSTTKVFHLQPVGNKLKVTKLDNDLLLRTSTKLVKFIDNSKIVICSCEDDVFIVDLESEEDEKPQEVELLEVTSTKSSIKVPYINRINHLEVDQNIAVISRGCGVVDILDLKARISKPLARLNNFITAVHINTSRKSVVVITADNKIYEFNMNLNSEAENEDSESVLTQWSKNNTDNLPKEWKTLKENCVGIFSDIENSSRLWFWGATWISRIDFDVDFPINKRRKQKKRTHEGLTITDESNFMNDEEDDEDDDIDMEISENLNVLLNQGNKIKSTDVQRNEESSGHFFFTDKYKPLLFVDLISSNELAIIERNPLTFHSKQKAFIQPKLVF,failed
10,MGSSHHHHHHSSGRENLYFQGMAGGKSMNVESYEKILRDRQRELYRRLHKIEADFEEPRNPDDEDRASERSNDEVLDELGQVGQDELRAIDAALARIASGTFGTCVKCGKRISEDRLKAVPYTPFCQECAAAL,not failed
11,MKGIINMATFKQYKTKSGAFWEAFTSVGKDTNGKAKRMHKRGFKTKKEAQLWTSNVQTDFTKNGFIANDNITFAELYTKWFNEDYKEQVKESTYMITDDIFRLHILPELGSQRVKRITVAQCQSIVHKWLNQGFKTYRRFRTYAISVFDFGVRMELTTRNPMAKTSIPKQKTKPQAPHVDFYEKSELLHFLDCASKHENPQAFMFFRLLAFTGLRRGEALALQWSDINFETNELTVNKTQAVGKRWRTIIQTPKTNTSYRTIVLDPDTAQWLHKWKMTQARQCFELGFNANDPSQLVFTNQQNKLMSPSTVNYFNWSICKKYGLRHIKIHAFRHTFCTLAFEAHAGINEVSKTLGHADLKITEQIYLHVTKKQKNETASKLARYMSEL,failed
12,MMQHCAPTPRLARFLFVEYRMMRQYELVERVQKYKPDANEALLNKAYVYAMQKHGQQKRANGDPYISHPLEVAAILTEMHLDESTIAVALLHDTIEDTTATRAEIDELFGEDIGRLVEGLTKLKKLDLVTRKAKQAENLRKLLLAISDDVRVLLVKLADRLHNMRTMEYMPADKRSRISEETMEIYAPLAGRMGMQDMRDELEDLSFRYLNPEAYETVTNRLLELETRNEGLIKKIEDELRELLVANGLLGTHVKGRQKKPYSVFRKMQSKSLSFEQLSDVYGFRILVDDIPGCYRALGIVHTRWRVVPGRFKDYISTPKQNDYRSIHTTIVGPSRQRIELQIRTKRMHEIAEFGIAAHALYKDGENGEGDLLSKESNAYSWLRHTIESLAEGDSPEEFLEHTKLELFQDQVFCFTPKGKLIALPRGATPIDFAYAVHTNIGDTTVGAKINGRIMPLVTRLNNGDEVEIIRSGVQVPPAAWEEVVVTGKARSAIRRATRMAIRKQYSGLGYRILERTFERAGKAFSREALKPVLHRLAQKDVEDAIAAVGRGEVSSLDVLRAVFPDYQDERVTVKMTGDDGWFNMRSASGMVFKIPGKSRSVLEDDGAAEMLDGPDPLPIRGLSGNVDVHFSAAGAVPGDRIVGIMEKGKGITIYPIQAPALQRFDDEPERWIDVRWDLDEANKSRFMARVMINALNEPGTLASVAQSIATLDVNIRGLNMVRIGTDFSELALDVEVWDLRQLNQLLSQLKDLDCVSTVARAFD,failed
13,MKIAIVRLSALGDIIVSAVFLAVIKECLPNAQIEWFVDERFSAILEHSPYIDKLHPIALKSALKTLNPLKIFKLFKSLRAYEYDIIIDMQGLVKSALITQMLKAPKKVGFDYASAREGLSMFFYSQKVSIAYDEPVLKRNFTLLSHALNLPQKEISKEISESLSSRAKAFSYQPSPKIDALNLNKNKPKILFILETSKINKTYPIERFKELALILENFQICLLWHADEYKATTLYHALKHQRDVLLLPKLTLNEVKALLFKMDLIIGGDTGITHLAWALQKPSITLYGNTPMERFKLESPINVSLTGNSNANYHKKDFSIQNIEPKKIKECVLNILKEKE,failed
